Results reported in patent WO1996020011A1.

Biological target: LoVo tumour cells (carcinoembryonic antigen, the antigen of A5B7, on the cells) (human) (UniProt P06731)
Test: binding of the 125I-labelled conjugate to LoVo tumour cells, method of Lindmo et al.

UniProt P06731, sequence (P06731 35-702): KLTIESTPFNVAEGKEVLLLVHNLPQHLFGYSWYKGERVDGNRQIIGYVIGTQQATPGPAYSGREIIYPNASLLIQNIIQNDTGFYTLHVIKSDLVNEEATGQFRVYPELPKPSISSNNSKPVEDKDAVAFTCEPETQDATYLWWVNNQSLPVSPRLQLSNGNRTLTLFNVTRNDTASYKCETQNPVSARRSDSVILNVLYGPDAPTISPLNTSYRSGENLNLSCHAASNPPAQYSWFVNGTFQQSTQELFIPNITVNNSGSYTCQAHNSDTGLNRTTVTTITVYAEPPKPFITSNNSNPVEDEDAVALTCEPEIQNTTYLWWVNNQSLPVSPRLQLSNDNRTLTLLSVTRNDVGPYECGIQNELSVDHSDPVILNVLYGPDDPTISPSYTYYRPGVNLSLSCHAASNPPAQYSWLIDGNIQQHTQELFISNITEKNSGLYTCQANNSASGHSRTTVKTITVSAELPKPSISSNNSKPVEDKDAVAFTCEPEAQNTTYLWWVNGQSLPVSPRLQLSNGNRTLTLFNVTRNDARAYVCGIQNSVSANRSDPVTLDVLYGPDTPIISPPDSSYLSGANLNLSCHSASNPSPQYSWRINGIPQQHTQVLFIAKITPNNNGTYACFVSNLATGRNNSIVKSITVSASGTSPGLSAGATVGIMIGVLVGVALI

“murine A5B7 F(ab')2-bovine pancreatic ribonuclease conjugate, radioiodinated with 125I (from UniProt P61823 27-150)” gave an immunoreactivity retained after radioiodination of over 50%.
